Assay results: the domain aggregation screens of Martell et al. (2025)

Assay: soluble fraction after stress (log2 fold change); higher = more stays soluble; pooled small domains, quantitative proteomics
Details: stress: 75 degC
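Further: 20 min heating vs room temperature control held 20 min.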

Sequence | soluble fraction (log2)
HMFKEVPVPDVKGMTLEEAKLALEKEGFILGKTEEAESTEVAAGKIISQNLEAGKIAKQGTSVNLVVSKGK | 0.454
HMFKLPRTIGTFEDSDVVIGAGKFGPYIMHNKKFVSLPKSEDPLTIGLERAIELISAKREQEKQRH | 0.265
HMFLPFFDNLRKAGVPVSLREFLGFLEGMKAGLATYDIDAFYFLARTTMVKDERNLDKFDRAFSATFKG | -1.02
HMFNDGEIAIYTDPRGDAGETQIWKRGKGYYGQNDSFDFEAKDKKELEMKLKRWGYVLIAGSIDE | -0.435
HMFNGDPTTRESILASARAEIDQYGIIGLRLSAVAEKAQVSVPLIYKYFEDRDGLLAVVLGDW | -1.21
HMFNTWLGEIRSNTGANVRSGPDASAAIVDARPNETVVRVIGQSGNWLQIGDKQFVAQSLVAP | -0.0837
HMFPDLTGDELRIVDLLNTANDLQVNIITAKTNLPISRVTSLLFQLEMKGVVKPLAGGMYHLLG | -1.49
HMFPELDEEEQKITKLLQAQNDLPANIIAVKTALNIGTTQAKLFSLEMKGVVKPYAGGFYHLL | -2.73
HMFPNLTNEEQQVMKVLAKTNDLQINMLSVQSNLPIARLTALLFSMEMKGVVKTLAGGVYHLL | -4.27
HMFPNSFSEREKEVVDLLLQAKSNKQIAFSLGITNRTVEYHLGNIFAKLGVSSRSEAILTITNYKNQ | -2.35
HMFPQVEVQLIYSYKSDRILNKMLKEFNVVILNQVFKDDILTSFHMNYSLVNQLITKIKSYPDISYKIIN | -1.82
HMFPTLNEDEQTIVSALQKINDQPINTLSIHTALPIPRLTSLLFQLEIKGVIKQLAGGTYHVL | -2.84
HMFQLSNEAKQQVLGELKRYESKQSAVLPALYIGQKDNKGHITPEVIRELSKVMDIPESQINEVFTFYTM | -0.287
HMFQRLPFSFANRYKMVLEYQHPERPPVLYYVEPLKAAAILEVSRVIKSGFTPQAIVSDEFEKKLTEAYQR | -2.76
HMFRMTPQRMAILAEVQNAERHLTAAEIYERVRRKYPTIAYGTVYRTLHLLAKHGLIQEFPFGDNASLFDR | -0.159
HMFRPRIEPGAKGSYVLEVQKRLAKLGYEHAGFDGVYGPGTERAIMQLQRDKGLPVTGIVDMRTYEALGLF | -0.99
HMFRSTLEELKHQISGFLKANQSQEFTAQNLADGLRMTSIAEYKRVVNAMDALVRDGELTFDAGKYQYNPN | -0.234
HMFSMKDFGQRLRQLRKERGLTQGDLARLAKIDIMQVSRYERGLGLPSLETAIALARVLETSTDLLFLG | -3.52
HMFSPSDEDLELAHRQIRAFEEVEANGKSIAVVDGRIVESLHIVTARDTLEKAKAITALAEEM | 0.000997
HMFSVVDKITLQEELKKLSKKEQLLIQLRYYDELNQEEIAKIFHVSQVQISRMEKKIIEKLKKQF | -3.44
HMFTDEELEHIRSALIQAGIRLSKELGLQKMSVEKLTAAVGIAKGSFYMFFGSKEDFILEVAEYTGAQ | -0.976
HMFTEEEMTKLRHELILAGIRLSRELGLQRMSVEKITSAVGIAKGSFYIFFDSKEDFILEIADHANRE | -1.1
HMFTEEQMDWLRLIKDHIVASLSILPEDLELTPFDRKGGLLGFYDAFGDEYEKILQEMNEELVA | -0.567
HMFTEIMAERNALIQAIQQNLPPQHIQSILSKKNKFRLEDLTNEELRDVWQWILNQRQAQQHQQQ | -0.0958
HMFTGELESRVFELNYVDGLVASAALAGVLTDKGSATPIASRAGGENDMLLVVDRIASYSQIEKIITQLD | 0.0191
HMFTKSNLEKLSNSELILKAIDSGNYSKIEFGGSEALNPDVPSYKKDLKNREELIEILSEMGM | 0.148

Sequence | soluble fraction (log2)
HMFVNADEIAKGLSPFNPSSVAIEAGRLMLKRIGELLSAGVSFSVETTLSTRSYINLIQQAQNQGYSVSL | 0.822
HMFVVVPDLIGKTINQFEEDLSELNLKYVVSDSGNFNPEFKINAVLDQSPKANSKVKDGRKIYLTLNAS | -0.434
HMFWRKIDFYGLNLSTYRNIINIGSDYNYIYLDLGNIYKILNPITGKIIEEQDLVMNIDNINWSS | 0.283
HMFYNDLINFDVFRDSRKIGKIENINSRLPQPVFEIMYDSRIVLIPIHEDFIRKIDKVNNIIYLDIPDGLL | -2.99
HMGAAFITSSKDNAINIRQSANTDSKVIETVTNGQILESNEKSGEWHKVTYYDNDIKKSFTGYVHEGQLK | 0.0505
HMGAAIEYGDRGNTVLQAQRLLIARGYMAGSADGIYGRQMEQAVKRFQKEQGLPESGVVDRRTLQVLIRSR | -1.63
HMGAARRFEMSEGGSQKFWEVAVEGPALTVRFGKLGTAGTTQTKTLASAEAAAKEADKLVREKTKKGYAP | -0.199
HMGAATQADIARVQELLNRLGYDAGSPDGLMGPRTRDAILEYQLTEGLETTGTVTRETLASLEARL | 0.0156
HMGAGFREAIPPALDGERIDRVVSLLAYVSRNRAAGALAAGSVSVDGEVVFQRSRRVREGEELVVTGFERE | -1.01
HMGAITGLQSRVAFLKGQGTITDAEAKTAMAFLPDPTDSKEVKIAKIGQAREYIMSLIENRA | -0.267
HMGAIVTGTVVEIRSDVVIVNAGLKSEGVVPIEQFRNEAGELEVSVGDEVKVALDALEDGFGETRLS | -0.347
HMGAIVTVPDLAGRPQPGAEAELRRSGLVPKVRTSYSLTGTRGTVISQTPPAGSRVREGAEVEVVVSRGLN | 0.00469
HMGAKLTTAQGGTLKVLVKGKKTHTPTIELRDKDPDFPNAKVVQPDINKGNKQIAHGINGVL | 0.686
HMGALAITPDFVGQTREEAERFLRDLDLSFDIGGKGDRILRQEPVAGQRMNLDQPMKLWVGSMNA | 0.245
HMGANAVAAFTARVRTGPSTGYPVRISVPQGRQVRVISGPYGGWYRVSYQGLTGYTYGGLLRQG | -0.673
HMGAPAISYSKFLEQVDRKNVASVTIYKDGRIDGVMTSGSRFATESPSDPGLVGDLLKAGVEIRAKPP | 0.177
HMGAPVIYELTAESAAGQRIDKYLSGQLADLSRSYLQKLLKDGGVEVNKKPVKSNYKLSEGDQIRLEVPEA | 0.0457
HMGAQINSPISGTILKYLVKNGDKITKDQPLVNIESMKMENTIKSDKEGIVNNINFKIGDSVNTADTLLTL | 0.0698
HMGAQKITIPDFSNQEATQVYAELKNMGLEYTESRMNHPSIASGYVIKTEPTKGSEVKAGTTVTVYVSLG | -0.112
HMGARHPLPYPFARAHGLLLEADGERSTLWASTNVSPAALSEVMRKYAVDVIEEEPPETLSQRIAAAYAA | -0.155
HMGASFITSSKDNAINIRESATTDSKVIETIKNGEILESTEKSGDWHKVTYYNSEIKKSFTGYIHNSQLK | 0.426
HMGASLVIVPGAGFLRVSASSQTRLDVYSITGMRVRSVDFEPGTTEIELPAGFYIAGGRKFFV | -2.42
HMGAYITYEVKPGDTLWDIANKFPGVSADNIKTWNKVDELIKAGERLKINTQTITDYSPDKYPS | -0.242
HMGDADDLSRELLQQGLSLKEAVADFERRYLQQAMQRHSSIASVSEALDVHFSTLWRKLVKYNLV | -0.104
HMGDADDLTRIKGIGPKLSKTLNELGIYHFRQIAGWQSDEADWVDDYLSFKGRVMREQWIEQAQKFAS | -0.475
HMGDAIPVPDVSGFSEDQAMNNLRKVGLRPKATYVADDNTAKGYVTGTSPAKNIEVAPDSEVIVYVSSGP | 0.697

Sequence | soluble fraction (log2)
HMGDAPLITVDKRTIKVNGAKAQIQVYDTTGRLVKNVSPAGKLTLIEMAKPGIFIVHTQSMSFKVVL | -0.351
HMGDAVYSKVKDLVNTYNALAKQTGKSDLVSISQSRTWMVNDTKAHEVQWNKIGITIEDDQTLTI | 0.0968
HMGDLDLVTFGQRLRHLRRSRNMTLSELGERVGRAPSQLSLLENGKREPKLSLLTALAKALDVSVEEL | -1.05
HMGDLVKGKVVGYDPDNVIVDIGAKTNALVPNREAVVEAGDDIKETLKKGNEYEFLIIRDEDEEGEFL | 0.24
HMGDPEYFKKQLGDFMDRFNITSEDIKNLSIAGAINRMMNNAEGEDKTVLSKLLETVNKSGVGNLPAKTI | -0.0106
HMGDPVRVDKFLHDMNVGTRSQIRKLIKEKAVFVNDVVAKSGRVKVDPVVDQVRLGEQVITYQ | -0.245
HMGDPYAILGLLPGASMEDVRHAWRRQAAENHPDRMLQRGAPPEFVEIAREKTAAINAAYARIREELSI | -0.433
HMGDTIGEQKAKEIALEHAGLKSSDVTFIRAVLEYDDRNWEYDVEFYDADTYTEYDYEIDAHTGKILSFDH | 0.351
HMGDTPVDFSEFIRWVDTGVVDRVELTGNEIVGTSSSGERFSTYAPPQYEGLGNKLIERDIVVVATAA | -0.0455
HMGDTVSGTMLNLKPGVRVVHQIFGPGRVEETTGASLAEFRVTVRFEQKGLKTLLLQYAALQVINSEN | -1.73
HMGDVKLNAIYNFLKEFSALNGFPPSVREIGAKFGIKSTSTVHYYLEKLKQSGVIQQEENKKRAVVIN | -1.32
HMGDWEDFWEKEARRRKLSLDYQVVRSLSRWSREYDWGEEDVEQFLSQFPEGETVKMEDVELYFE | -1.18
HMGDYDHYVVKVEDTLLNWLVTNVTTMSRNKLKDILAGQGIKVNGKITTKYDYPLTPGMKIAISKTKR | -1.41
HMGEAIPVPDIRHKSQADAERLLQDQGLAMMVTDTGYVKTLPANYILEQIPVAGEKVKSGHVVYVIINSG | -0.103
HMGEGIRIDSTAVVQVGEKMYAYLGGDGFSKEFWTNLPASGELAVTLKFEPIPMDAESLDFYEMPA | 0.307
HMGEILYSGVLKGGDGPEATKLALEKFLGEANTQVAGRIGVQPETQVIWLSREAVDSAASTLSQHKGNMYV | -0.247
HMGELDFYEEMRDDYLTGKIWNVGEIVEAKGMIGEIVRKGTNYISFVTDDNKVHKAWLHEIKL | -0.641
HMGELRAPLPGVIVSIPVKEGDEVKAGQAILIIEAMKMESEISSPIDAKVAKIVVKERVLVQEGDILIILE | -1.33
HMGEMTDFETLRDMYLTGQIWNIDDLIEANGVEGRIVRRGTNYIAFNDRDGKVHKAWLHEVTINE | -0.434
HMGENTIFSGVLGEGRLDSALAHALPQFSRARIQGLIAEDAVLIAGKATNDAASKKFAGQSFELSVPAPRP | 0.119
HMGEPQAWNELIGNLLRQWEARQTGWTPARKREALDRVLGAADPAALYTRLQGLLKSWTQAMTDADA | -1.73
HMGEQETILKGDVNRDGVVDVNDVTHLQIHISNDDKNPLIDVTNKAWFDAADMYGDGKLDILDATALQIYI | 0.196
HMGERVDGVVKFFNGQKGFGFIQREDGGPDAFVHISAVERAGMAGLDEGQRVSFELELDRRGKQAAINLTP | 0.108
HMGESYGPVRRGETLWSIAEKVKPAGVSTQKELAAIYAANPQAFIRGDINLLKAGAELRLPSPEAL | -0.0179
